Assays:
[1] = test system: IgE from pooled mite-allergic human sera; assay: Monoclonal Capture ELISA (Example 8B, Table 7); type: binding
Experimental: Assays were carried out as follows. A microtiter plate as described in Example 5 was coated overnight at 4° C. with 100 ng/well of anti-Der f 1 protein monoclonal antibody 6A8, denoted herein as anti-Der f 1 MAb 6A8, provided by Dr. Martin Chapman. The plate was washed in the manner described above. The following proteins were then added to wells, having been diluted in Assay Buffer in a 2-fold dilution series, from 0.75 to 50 ng/well: Heska native Derf1, P. pastoris-expressed PDerf1303b, and E. coli-expressed PDerf1303c. After incubation for 1 hour at room temperature, plates were washed as described in Example 5. Then 100 μl per well of a 1:1000 dilution in Assay Buffer of biotinylated anti-Der f 1 monoclonal antibody 4C1, also denoted anti-Der f 1 MAb 4C1, provided by Dr. Martin Chapman, was added for 1 hour at room temperature. Plates were washed, streptavidin-HRP conjugate was added, and plates were developed as described in Example 5.
B. The Der f 1 proteins described in Example 8B were reacted as described in Example 6 with a pool of serum samples collected from 16 mite-allergic human patients.

[2] = test system: IgE from mite-allergic or normal human sera; assay: ELISA, binding of IgE from human sera to coated Der f 1 proteins or mite extracts, detected with FcεR1α-biotin
[3] = test system: IgE from mite-allergic dog sera; assay: ELISA, binding of IgE from dog sera to coated Der f 1 proteins or mite extracts, detected with FcεR1α-biotin
Experimental: Native or recombinant Der f 1 proteins in 100 μl CBC buffer (50 mM sodium carbonate, pH 9.6) were coated onto wells (100 ng per well) of Immulon II microtiter plates (available from Dynex Technologies, Chantilly, Va.) by incubation at 4° C., covered, overnight. Excess fluid was removed and wells were blocked with 200 μl Assay Buffer (4% fetal calf serum (available from Summit Laboratories, Fort Collins, Colo.) in phosphate buffered saline (PBS, recipe in Sambrook, ibid.), plus 0.05% Tween-20 (available from Sigma, St. Louis, Mo.)) for one hour at room temperature. Plates were then washed for 4 cycles on an automatic plate washer (Ultrawash, available from Dynatech Laboratories) using PBS with 0.05% Tween-20. […] Control wells were treated identically except that no serum was added. Plates were then washed as described above. Biotinylated human IgE receptor alpha chain (FcεR1α-biotin) (100 μl of 1.3 ng/ml) prepared as described in U.S. Pat. No. 5,945,294, ibid., was added and incubated for one hour at room temperature. After this incubation, plates were washed as described above. Streptavidin-horseradish peroxidase conjugate (0.5 mg/ml, available from KPL Labs, Gaithersburg, Md.) was added at a 1:5000 dilution in Assay Buffer for one hour at room temperature, after which plates were washed as described above. TMB Peroxidase substrate system, 2 part (available from KPL Labs, #0-76-00), added at 100 μl per well, was used according to the manufacturer's directions. The color reaction was allowed to proceed until good color development was reached (about 10-15 min); then the reaction was stopped with 100 μl per well of 1 M phosphoric acid. Bound IgE was determined by measuring absorbance (Optical Density, or OD) at 450 nm (nanometers) using an ELISA plate reader (such as Spectramax”, Molecular Devices, Sunnyvale, Calif.). Background OD readings in the control wells were subtracted from all numbers. Results are reported in Tables 1, 2 and 3 as OD multiplied by 1000. OD numbers greater than 100 are considered to be positive for a reaction with IgE. P. pastoris-expressed proteins are denoted in the Tables as Pichia expressed proteins.

IgE = details: cited from earlier work; for IgE reactivity relative to the native protein: literature reports (Chua et al 1992; Shoji et al 1996, 1997)

B1: Chapman native Derf1: Native purified Der f 1 protein, purified in the laboratory of Martin Chapman (protein)
chain: TSACRINSVNVPSELDLRSLRTVTPIRMQGGCGSCWAFSGVAATESAYLAYRNTSLDLSEQELVDCASQHGCHGDTIPRGIEYIQQNGVVEERSYPYVAREQRCRRPNSQHYGISNYCQIYPPDVKQIREALTQTHTAIAVIIGIKDLRAFQHYDGRTIIQHDNGYQPNYHAVNIVGYGSTQGDDYWIVRNSWDTTWGDSGYGYFQAGNNLMMIEQYPYVVIM
With B1 the “OD, Monoclonal Capture ELISA” value ([1]; 0.39 ng protein per well) was 1480 OD, the “OD, Monoclonal Capture ELISA” value ([1]; 0.78 ng protein per well) was 2186 OD and the “OD, Monoclonal Capture ELISA” value ([1]; 1.55 ng protein per well) was 2447 OD. The “OD, Monoclonal Capture ELISA” value ([1]; 3.1 ng protein per well) was 2597 OD, the “OD, Monoclonal Capture ELISA” value ([1]; 6.25 ng protein per well) was 2620 OD and the “OD, Monoclonal Capture ELISA” value ([1]; 12.5 ng protein per well) was 2483 OD. For the same molecule, the “OD, Monoclonal Capture ELISA” value ([1]; 25 ng protein per well) was 2249 OD, the “OD, bound IgE” value ([2]; Assay Number 1, serum human 1916) was 17 OD multiplied by 1000 and the “OD, bound IgE” value ([2]; Assay Number 1, serum human3848) was 2336 OD multiplied by 1000. The “OD, bound IgE” value ([2]; Assay Number 1, serum human 3958) was 1261 OD multiplied by 1000, the “OD, bound IgE” value ([2]; Assay Number 1, serum human 3960) was 1024 OD multiplied by 1000 and the “OD, bound IgE” value ([2]; Assay Number 1, serum human 3961) was 326 OD multiplied by 1000. The “OD, bound IgE” value ([2]; Assay Number 1, serum human 3987) was 1216 OD multiplied by 1000, the “OD, bound IgE” value ([2]; Assay Number 1, serum human 4289) was 287 OD multiplied by 1000 and the “OD, bound IgE” value ([2]; Assay Number 1, serum human 4467) was 615 OD multiplied by 1000. The “OD, bound IgE” value ([2]; Assay Number 1, serum human 5207) was 2669 OD multiplied by 1000, the “OD, bound IgE” value ([2]; Assay Number 1, serum human pool) was 1531 OD multiplied by 1000 and the “OD, bound IgE” value ([2]; Assay Number 2, serum Heska human B) was 0 OD multiplied by 1000. The “OD, bound IgE” value ([2]; Assay Number 2, serum Heska human C) was 0 OD multiplied by 1000, the “OD, bound IgE” value ([2]; Assay Number 2, serum Heska human D) was 0 OD multiplied by 1000 and the “OD, bound IgE” value ([2]; Assay Number 2, serum Heska human E) was 2 OD multiplied by 1000. The “OD, bound IgE” value ([2]; Assay Number 2, serum Heska human F) was 0 OD multiplied by 1000, the “OD, bound IgE” value ([2]; Assay Number 2, serum Heska human G) was 0 OD multiplied by 1000 and the “OD, bound IgE” value ([2]; Assay Number 2, serum Heska human H) was 0 OD multiplied by 1000. For the same molecule, the “OD, bound IgE” value ([2]; Assay Number 2, serum Heska human I) was 0 OD multiplied by 1000, the “OD, bound IgE” value ([2]; Assay Number 2, serum Heska human J) was 0 OD multiplied by 1000 and the “OD, bound IgE” value ([2]; Assay Number 2, serum Heska human K) was 0 OD multiplied by 1000. The “OD, bound IgE” value ([2]; Assay Number 2, serum Heska human L) was 0 OD multiplied by 1000, the “OD, bound IgE” value ([2]; Assay Number 2, serum Heska human M) was 0 OD multiplied by 1000 and the “OD, bound IgE” value ([2]; Assay Number 2, serum Heska human N) was 373 OD multiplied by 1000. The “OD, bound IgE” value ([2]; Assay Number 2, serum Heska human O) was 0 OD multiplied by 1000, the “OD, bound IgE” value ([2]; Assay Number 2, serum Heska human P) was 0 OD multiplied by 1000 and the “OD, bound IgE” value ([2]; Assay Number 2, serum Heska human Q) was 0 OD multiplied by 1000. The “OD, bound IgE” value ([2]; Assay Number 2, serum Heska human R) was 0 OD multiplied by 1000, the “OD, bound IgE” value ([2]; Assay Number 2, serum human 1916) was 8 OD multiplied by 1000 and the “OD, bound IgE” value ([2]; Assay Number 2, serum human 3848) was 1726 OD multiplied by 1000. The “OD, bound IgE” value ([2]; Assay Number 2, serum human 3958) was 822 OD multiplied by 1000, the “OD, bound IgE” value ([2]; Assay Number 2, serum human 3960) was 522 OD multiplied by 1000 and the “OD, bound IgE” value ([2]; Assay Number 2, serum human 3961) was 169 OD multiplied by 1000. For the same molecule, the “OD, bound IgE” value ([2]; Assay Number 2, serum human 3987) was 846 OD multiplied by 1000, the “OD, bound IgE” value ([2]; Assay Number 2, serum human 4289) was 173 OD multiplied by 1000 and the “OD, bound IgE” value ([2]; Assay Number 2, serum human 4467) was 353 OD multiplied by 1000. For the same molecule, the “OD, bound IgE” value ([2]; Assay Number 2, serum human 5207) was 2171 OD multiplied by 1000, the “OD, bound IgE” value ([2]; Assay Number 2, serum human pool) was 1236 OD multiplied by 1000 and the “OD, bound IgE” value ([2]; Table 3, sera 429, PDerf1303b preparation number A166-26, PDerf1223b preparation 1000-7) was 152 OD multiplied by 1000. For the same molecule, the “OD, bound IgE” value ([2]; Table 3, sera 1916, PDerf1303b preparation number A166-26, PDerf1223b preparation 1000-7) was 14 OD multiplied by 1000, the “OD, bound IgE” value ([2]; Table 3, sera 3848, PDerf1303b preparation number A166-26, PDerf1223b preparation 1000-7) was 1033 OD multiplied by 1000 and the “OD, bound IgE” value ([2]; Table 3, sera 3958, PDerf1303b preparation number A166-26, PDerf1223b preparation 1000-7) was 1067 OD multiplied by 1000. The “OD, bound IgE” value ([2]; Table 3, sera 3960, PDerf1303b preparation number A166-26, PDerf1223b preparation 1000-7) was 738 OD multiplied by 1000, the “OD, bound IgE” value ([2]; Table 3, sera 3961, PDerf1303b preparation number A166-26, PDerf1223b preparation 1000-7) was 221 OD multiplied by 1000 and the “OD, bound IgE” value ([2]; Table 3, sera 3987, PDerf1303b preparation number A166-26, PDerf1223b preparation 1000-7) was 865 OD multiplied by 1000. For the same molecule, the “OD, bound IgE” value ([2]; Table 3, sera 4467, PDerf1303b preparation number A166-26, PDerf1223b preparation 1000-7) was 489 OD multiplied by 1000, the “OD, bound IgE” value ([2]; Table 3, sera 5207, PDerf1303b preparation number A166-26, PDerf1223b preparation 1000-7) was 1836 OD multiplied by 1000 and the “OD, bound IgE” value ([2]; Table 3, sera human pool, PDerf1303b preparation number A166-26, PDerf1223b preparation 1000-7) was 1114 OD multiplied by 1000. For the same molecule, the “OD, bound IgE” value ([2]; Table 6, pool of sera from 16 mite-allergic human patients, 6.2 ng protein per well) was 17 OD, the “OD, bound IgE” value ([2]; Table 6, pool of sera from 16 mite-allergic human patients, 12.5 ng protein per well) was 116 OD and the “OD, bound IgE” value ([2]; Table 6, pool of sera from 16 mite-allergic human patients, 25 ng protein per well) was 215 OD. The “OD, bound IgE” value ([2]; Table 6, pool of sera from 16 mite-allergic human patients, 50 ng protein per well) was 488 OD, the “OD, bound IgE” value ([2]; Table 6, pool of sera from 16 mite-allergic human patients, 100 ng protein per well) was 581 OD and the “OD, bound IgE” value ([2]; Table 6, pool of sera from 16 mite-allergic human patients, 200 ng protein per well) was 584 OD. For the same molecule, the “OD, bound IgE” value ([3]; Assay Number 1, serum dog pool) was 341 OD multiplied by 1000, the “OD, bound IgE” value ([3]; Assay Number 1, serum dog-1) was 6 OD multiplied by 1000 and the “OD, bound IgE” value ([3]; Assay Number 1, serum dog-2) was 1408 OD multiplied by 1000. For the same molecule, the “OD, bound IgE” value ([3]; Assay Number 1, serum dog-3) was 3125 OD multiplied by 1000, the “OD, bound IgE” value ([3]; Assay Number 2, dog sera pool A 146) was 220 OD multiplied by 1000 and the “OD, bound IgE” value ([3]; Assay Number 2, dog sera pool KS338) was 19 OD multiplied by 1000.

B2: S. cerevisiae-expressed Der p 1 proenzyme: Recombinant Der p 1 pro-form produced in S. cerevisiae, solubilized and renatured (Chua et al) (protein, UniProt P08176 19-320, looked up)
pro-form: RPSSIKTFEEYKKAFNKSYATFEDEEAARKNFLESVKYVQSNGGAINHLSDLSLDEFKNRFLMSAEAFEHLKTQFDLNAETNACSINGNAPAEIDLRQMRTVTPIRMQGGCGSCWAFSGVAATESAYLAYRNQSLDLAEQELVDCASQHGCHGDTIPRGIEYIQHNGVVQESYYRYVAREQSCRRPNAQRFGISNYCQIYPPNVNKIREALAQTHSAIAVIIGIKDLDAFRHYDGRTIIQRDNGYQPNYHAVNIVGYSNAQGVDYWIVRNSWDTNWGDNGYGYFAANIDLMMIEEYPYVVIL
modifications: pro-form S. cerevisiae-expressed
For B2, the “sera reactive, of 11 sera reactive with the native protein” value (IgE; Chua et al) is given as 9 and the “IgE reactivity relative to the native protein” value (IgE) is given as “about 80%”.

B3: Der f 1 pro-form: Recombinant Der f 1 pro-form from baculovirus expression system in insect cells (Shoji et al) (protein, listed as Dermatophagoides farinae)
chain: RPASIKTFEEFKKAFNKNYATVEEEEVARKNFLESLKYVEANKGAINHLSDLSLDEFKNRYLMSAEAFEQLKTQFDLNAETSACRINSVNVPSELDLRSLRTVTPIRMQGGCGSCWAFSGVAATESAYLAYRNTSLDLSEQELVDCASQHGCHGDTIPRGIEYIQQNGVVEERSYPYVAREQRCRRPNSQHYGISNYCQIYPPDVKQIREALTQTHTAIAVIIGIKDLRAFQHYDGRTIIQHDNGYQPNYHAVNIVGYGSTQGDDYWIVRNSWDTTWGDSGYGYFQAGNNLMMIEQYPYVVIM
For B3, the “IgE reactivity relative to the native protein” value (IgE) is listed as 20%.

Reference: patent publication US8465945B2, “Method for production and use of mite group 1 proteins” (Merck Patent GmbH, priority 1999, dated 2013)
